Common to all, as to assay: cleavage_in_vitro
In data set [1] the test system is T1, OMNI-116 (metagenomic, unknown).
T1 sequence: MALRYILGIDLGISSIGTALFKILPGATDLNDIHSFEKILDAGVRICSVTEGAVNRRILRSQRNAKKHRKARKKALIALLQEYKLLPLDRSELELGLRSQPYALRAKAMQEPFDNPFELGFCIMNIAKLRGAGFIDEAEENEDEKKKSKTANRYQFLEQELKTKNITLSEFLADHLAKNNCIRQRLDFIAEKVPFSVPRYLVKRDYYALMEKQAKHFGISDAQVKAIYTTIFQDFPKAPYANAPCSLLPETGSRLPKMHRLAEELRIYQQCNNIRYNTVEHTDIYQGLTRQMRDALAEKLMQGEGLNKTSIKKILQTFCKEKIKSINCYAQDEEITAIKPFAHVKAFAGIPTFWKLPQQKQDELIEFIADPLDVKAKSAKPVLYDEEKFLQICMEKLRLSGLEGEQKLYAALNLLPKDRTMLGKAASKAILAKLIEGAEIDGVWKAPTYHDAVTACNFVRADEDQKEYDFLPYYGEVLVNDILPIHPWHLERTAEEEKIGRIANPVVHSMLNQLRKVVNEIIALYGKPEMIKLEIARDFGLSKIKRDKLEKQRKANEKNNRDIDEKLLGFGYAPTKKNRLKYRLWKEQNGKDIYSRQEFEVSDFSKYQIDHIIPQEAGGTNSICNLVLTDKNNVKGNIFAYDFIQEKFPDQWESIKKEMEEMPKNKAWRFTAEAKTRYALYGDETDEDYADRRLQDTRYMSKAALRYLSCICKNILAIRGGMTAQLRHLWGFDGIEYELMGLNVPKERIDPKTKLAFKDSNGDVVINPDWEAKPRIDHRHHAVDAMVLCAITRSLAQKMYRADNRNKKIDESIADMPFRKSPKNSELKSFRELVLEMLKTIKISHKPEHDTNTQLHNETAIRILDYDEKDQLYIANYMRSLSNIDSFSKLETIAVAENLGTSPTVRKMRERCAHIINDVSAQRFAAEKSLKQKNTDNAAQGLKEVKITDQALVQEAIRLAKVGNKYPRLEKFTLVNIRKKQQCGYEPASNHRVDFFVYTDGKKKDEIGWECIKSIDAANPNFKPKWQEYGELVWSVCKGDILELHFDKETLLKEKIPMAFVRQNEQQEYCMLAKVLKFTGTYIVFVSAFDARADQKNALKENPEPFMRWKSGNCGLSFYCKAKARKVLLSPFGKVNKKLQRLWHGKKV
As to conditions: TXTL; PAM NRGGACNN

The subject of data set [2] is T2, OMNI-114 (metagenomic, unknown).
T2 sequence: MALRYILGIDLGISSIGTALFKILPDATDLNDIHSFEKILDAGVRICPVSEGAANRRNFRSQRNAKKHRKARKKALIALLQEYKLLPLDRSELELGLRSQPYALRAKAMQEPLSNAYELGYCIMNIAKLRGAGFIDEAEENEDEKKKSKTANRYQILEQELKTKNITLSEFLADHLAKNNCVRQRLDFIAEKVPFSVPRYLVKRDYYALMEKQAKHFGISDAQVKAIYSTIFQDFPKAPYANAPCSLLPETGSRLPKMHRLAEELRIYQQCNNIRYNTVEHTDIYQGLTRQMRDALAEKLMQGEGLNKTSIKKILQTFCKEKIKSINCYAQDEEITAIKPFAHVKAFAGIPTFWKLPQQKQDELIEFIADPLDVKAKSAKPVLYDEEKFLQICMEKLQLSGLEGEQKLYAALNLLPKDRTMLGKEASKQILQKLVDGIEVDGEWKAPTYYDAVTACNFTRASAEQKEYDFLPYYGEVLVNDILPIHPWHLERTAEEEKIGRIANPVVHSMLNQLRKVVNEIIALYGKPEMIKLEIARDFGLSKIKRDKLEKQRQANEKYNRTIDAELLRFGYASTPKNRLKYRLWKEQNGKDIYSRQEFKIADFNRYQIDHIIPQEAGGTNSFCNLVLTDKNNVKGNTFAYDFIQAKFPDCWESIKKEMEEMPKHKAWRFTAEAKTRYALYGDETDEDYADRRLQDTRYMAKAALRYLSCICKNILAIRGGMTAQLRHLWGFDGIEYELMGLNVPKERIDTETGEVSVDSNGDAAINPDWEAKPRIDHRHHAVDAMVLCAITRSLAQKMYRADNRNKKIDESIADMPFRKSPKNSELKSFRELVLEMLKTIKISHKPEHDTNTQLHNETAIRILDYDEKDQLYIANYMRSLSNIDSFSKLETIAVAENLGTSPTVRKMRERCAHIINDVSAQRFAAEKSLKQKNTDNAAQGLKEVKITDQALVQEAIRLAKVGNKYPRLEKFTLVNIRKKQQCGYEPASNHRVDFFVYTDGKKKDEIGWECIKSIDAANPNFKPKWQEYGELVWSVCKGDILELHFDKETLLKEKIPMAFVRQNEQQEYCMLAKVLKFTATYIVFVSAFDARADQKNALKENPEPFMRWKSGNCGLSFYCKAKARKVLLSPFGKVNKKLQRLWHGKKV
The following applies: TXTL; PAM NRGGACNN

For data set [3], the system named is OMNI-121 (metagenomic, unknown). The following applies: TXTL; PAM NNAAAYNN
The test system of data set [4] is T3, OMNI-120 (metagenomic, unknown).
T3 sequence: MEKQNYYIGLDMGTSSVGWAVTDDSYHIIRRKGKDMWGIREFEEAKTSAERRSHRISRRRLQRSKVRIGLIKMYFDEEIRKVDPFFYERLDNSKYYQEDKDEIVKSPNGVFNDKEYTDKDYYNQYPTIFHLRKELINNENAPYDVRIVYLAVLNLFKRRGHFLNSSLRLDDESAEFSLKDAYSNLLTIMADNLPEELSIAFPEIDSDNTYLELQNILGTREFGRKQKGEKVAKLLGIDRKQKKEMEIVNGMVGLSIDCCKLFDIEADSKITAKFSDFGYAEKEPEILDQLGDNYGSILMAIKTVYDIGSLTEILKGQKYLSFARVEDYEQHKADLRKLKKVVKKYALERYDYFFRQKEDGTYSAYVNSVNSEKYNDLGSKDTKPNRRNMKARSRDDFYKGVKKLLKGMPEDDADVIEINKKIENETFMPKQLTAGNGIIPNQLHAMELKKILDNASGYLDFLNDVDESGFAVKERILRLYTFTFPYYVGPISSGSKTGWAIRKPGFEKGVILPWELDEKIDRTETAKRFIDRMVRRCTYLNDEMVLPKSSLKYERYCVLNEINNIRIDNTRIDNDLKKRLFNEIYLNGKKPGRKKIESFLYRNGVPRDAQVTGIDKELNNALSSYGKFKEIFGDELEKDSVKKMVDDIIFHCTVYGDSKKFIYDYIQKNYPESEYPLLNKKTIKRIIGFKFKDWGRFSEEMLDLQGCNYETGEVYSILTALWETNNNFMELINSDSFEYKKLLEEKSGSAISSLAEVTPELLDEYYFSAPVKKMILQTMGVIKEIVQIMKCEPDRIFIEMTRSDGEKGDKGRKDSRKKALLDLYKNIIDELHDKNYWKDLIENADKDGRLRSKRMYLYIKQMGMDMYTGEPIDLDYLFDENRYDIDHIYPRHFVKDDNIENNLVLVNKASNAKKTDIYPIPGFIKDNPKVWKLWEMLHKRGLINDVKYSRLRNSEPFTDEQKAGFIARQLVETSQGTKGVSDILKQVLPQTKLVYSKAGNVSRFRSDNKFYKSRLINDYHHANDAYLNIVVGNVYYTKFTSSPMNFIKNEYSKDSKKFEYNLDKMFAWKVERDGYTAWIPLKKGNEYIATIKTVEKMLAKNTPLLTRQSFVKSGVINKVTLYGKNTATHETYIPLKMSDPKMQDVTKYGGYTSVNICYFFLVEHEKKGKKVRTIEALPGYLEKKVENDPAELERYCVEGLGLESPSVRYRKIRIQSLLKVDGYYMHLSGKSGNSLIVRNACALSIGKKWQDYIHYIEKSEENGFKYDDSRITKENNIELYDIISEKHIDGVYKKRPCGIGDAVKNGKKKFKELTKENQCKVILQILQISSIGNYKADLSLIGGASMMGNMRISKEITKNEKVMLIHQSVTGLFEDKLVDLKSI
The following applies: TXTL; PAM NRVACNNN

The test system of data set [5] is OMNI-119 (metagenomic, unknown). As to conditions: TXTL; PAM NNACNNNN
In data set [6] the test system is T4, OMNI-122 (metagenomic, unknown).
T4 sequence: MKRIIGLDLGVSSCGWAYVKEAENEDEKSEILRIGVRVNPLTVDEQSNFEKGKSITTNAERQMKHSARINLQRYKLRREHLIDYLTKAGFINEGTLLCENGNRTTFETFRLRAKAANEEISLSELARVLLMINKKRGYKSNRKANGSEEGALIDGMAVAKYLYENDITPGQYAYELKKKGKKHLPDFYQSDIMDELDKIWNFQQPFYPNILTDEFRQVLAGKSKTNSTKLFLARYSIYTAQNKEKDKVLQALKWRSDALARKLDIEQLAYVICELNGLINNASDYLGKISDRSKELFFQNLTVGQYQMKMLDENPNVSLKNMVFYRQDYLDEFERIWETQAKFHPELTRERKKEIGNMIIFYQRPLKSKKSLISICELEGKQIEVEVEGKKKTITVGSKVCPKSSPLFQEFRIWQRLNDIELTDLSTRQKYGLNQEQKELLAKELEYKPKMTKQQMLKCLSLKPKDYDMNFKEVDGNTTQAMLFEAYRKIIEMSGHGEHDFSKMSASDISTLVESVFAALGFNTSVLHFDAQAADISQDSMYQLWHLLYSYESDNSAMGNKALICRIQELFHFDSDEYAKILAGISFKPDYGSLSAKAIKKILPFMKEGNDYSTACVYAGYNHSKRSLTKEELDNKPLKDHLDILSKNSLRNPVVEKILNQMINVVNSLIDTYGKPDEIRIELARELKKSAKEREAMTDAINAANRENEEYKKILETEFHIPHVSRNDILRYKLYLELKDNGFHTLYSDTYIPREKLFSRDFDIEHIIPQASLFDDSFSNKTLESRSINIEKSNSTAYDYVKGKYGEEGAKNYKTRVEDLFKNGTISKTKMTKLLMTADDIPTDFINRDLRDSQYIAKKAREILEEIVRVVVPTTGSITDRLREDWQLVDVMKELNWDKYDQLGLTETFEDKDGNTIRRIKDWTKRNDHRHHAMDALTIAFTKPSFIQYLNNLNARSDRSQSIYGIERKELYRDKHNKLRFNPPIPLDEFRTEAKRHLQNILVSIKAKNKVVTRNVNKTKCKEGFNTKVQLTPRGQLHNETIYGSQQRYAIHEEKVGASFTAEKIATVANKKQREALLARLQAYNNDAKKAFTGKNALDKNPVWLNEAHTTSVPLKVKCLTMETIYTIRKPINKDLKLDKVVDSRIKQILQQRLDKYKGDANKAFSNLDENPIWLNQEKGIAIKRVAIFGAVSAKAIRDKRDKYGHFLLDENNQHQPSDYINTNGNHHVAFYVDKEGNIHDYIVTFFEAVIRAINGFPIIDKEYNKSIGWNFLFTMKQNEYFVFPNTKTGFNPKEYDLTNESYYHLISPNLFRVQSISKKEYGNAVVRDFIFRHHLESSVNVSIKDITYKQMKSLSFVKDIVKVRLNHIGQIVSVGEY
The following applies: TXTL; PAM NRYTTTYN

OMNI-121 (metagenomic, unknown), sequence (chain, as listed by the source): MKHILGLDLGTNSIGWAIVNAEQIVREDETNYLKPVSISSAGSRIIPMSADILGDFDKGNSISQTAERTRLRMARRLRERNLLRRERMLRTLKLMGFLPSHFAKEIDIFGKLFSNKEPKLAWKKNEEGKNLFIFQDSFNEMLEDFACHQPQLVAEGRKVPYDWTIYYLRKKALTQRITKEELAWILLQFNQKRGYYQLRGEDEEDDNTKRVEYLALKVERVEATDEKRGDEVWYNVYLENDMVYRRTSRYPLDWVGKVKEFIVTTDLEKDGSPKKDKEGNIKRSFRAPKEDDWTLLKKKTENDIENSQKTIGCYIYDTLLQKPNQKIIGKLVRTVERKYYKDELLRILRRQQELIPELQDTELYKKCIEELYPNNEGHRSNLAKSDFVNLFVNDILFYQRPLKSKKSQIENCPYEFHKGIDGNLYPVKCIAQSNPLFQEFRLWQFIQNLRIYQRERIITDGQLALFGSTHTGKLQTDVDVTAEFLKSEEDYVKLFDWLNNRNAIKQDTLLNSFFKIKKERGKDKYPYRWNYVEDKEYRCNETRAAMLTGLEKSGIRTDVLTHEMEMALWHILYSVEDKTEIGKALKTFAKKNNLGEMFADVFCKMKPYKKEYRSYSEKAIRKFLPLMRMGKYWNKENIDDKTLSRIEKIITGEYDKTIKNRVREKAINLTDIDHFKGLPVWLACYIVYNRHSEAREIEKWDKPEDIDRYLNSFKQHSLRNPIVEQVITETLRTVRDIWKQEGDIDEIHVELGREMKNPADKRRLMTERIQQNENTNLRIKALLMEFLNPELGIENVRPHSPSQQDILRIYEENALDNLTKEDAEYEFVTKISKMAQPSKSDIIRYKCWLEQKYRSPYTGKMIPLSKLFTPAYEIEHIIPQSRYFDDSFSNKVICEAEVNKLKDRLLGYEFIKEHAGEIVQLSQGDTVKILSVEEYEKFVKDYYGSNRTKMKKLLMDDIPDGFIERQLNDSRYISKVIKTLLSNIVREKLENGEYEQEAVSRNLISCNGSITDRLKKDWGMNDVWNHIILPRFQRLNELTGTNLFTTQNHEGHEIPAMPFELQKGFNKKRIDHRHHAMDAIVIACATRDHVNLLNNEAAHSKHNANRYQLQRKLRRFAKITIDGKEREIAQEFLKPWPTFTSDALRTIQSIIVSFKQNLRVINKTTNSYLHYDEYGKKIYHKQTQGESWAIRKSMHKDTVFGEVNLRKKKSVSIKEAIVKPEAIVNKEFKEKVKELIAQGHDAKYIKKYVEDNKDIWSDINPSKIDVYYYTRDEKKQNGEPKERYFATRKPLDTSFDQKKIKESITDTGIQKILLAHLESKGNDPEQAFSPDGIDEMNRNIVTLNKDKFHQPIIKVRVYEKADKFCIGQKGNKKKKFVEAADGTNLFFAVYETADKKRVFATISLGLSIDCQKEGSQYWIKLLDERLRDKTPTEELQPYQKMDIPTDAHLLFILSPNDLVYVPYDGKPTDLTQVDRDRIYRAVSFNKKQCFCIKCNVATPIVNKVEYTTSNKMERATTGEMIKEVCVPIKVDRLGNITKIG
OMNI-119 (metagenomic, unknown), sequence (chain, as listed by the source): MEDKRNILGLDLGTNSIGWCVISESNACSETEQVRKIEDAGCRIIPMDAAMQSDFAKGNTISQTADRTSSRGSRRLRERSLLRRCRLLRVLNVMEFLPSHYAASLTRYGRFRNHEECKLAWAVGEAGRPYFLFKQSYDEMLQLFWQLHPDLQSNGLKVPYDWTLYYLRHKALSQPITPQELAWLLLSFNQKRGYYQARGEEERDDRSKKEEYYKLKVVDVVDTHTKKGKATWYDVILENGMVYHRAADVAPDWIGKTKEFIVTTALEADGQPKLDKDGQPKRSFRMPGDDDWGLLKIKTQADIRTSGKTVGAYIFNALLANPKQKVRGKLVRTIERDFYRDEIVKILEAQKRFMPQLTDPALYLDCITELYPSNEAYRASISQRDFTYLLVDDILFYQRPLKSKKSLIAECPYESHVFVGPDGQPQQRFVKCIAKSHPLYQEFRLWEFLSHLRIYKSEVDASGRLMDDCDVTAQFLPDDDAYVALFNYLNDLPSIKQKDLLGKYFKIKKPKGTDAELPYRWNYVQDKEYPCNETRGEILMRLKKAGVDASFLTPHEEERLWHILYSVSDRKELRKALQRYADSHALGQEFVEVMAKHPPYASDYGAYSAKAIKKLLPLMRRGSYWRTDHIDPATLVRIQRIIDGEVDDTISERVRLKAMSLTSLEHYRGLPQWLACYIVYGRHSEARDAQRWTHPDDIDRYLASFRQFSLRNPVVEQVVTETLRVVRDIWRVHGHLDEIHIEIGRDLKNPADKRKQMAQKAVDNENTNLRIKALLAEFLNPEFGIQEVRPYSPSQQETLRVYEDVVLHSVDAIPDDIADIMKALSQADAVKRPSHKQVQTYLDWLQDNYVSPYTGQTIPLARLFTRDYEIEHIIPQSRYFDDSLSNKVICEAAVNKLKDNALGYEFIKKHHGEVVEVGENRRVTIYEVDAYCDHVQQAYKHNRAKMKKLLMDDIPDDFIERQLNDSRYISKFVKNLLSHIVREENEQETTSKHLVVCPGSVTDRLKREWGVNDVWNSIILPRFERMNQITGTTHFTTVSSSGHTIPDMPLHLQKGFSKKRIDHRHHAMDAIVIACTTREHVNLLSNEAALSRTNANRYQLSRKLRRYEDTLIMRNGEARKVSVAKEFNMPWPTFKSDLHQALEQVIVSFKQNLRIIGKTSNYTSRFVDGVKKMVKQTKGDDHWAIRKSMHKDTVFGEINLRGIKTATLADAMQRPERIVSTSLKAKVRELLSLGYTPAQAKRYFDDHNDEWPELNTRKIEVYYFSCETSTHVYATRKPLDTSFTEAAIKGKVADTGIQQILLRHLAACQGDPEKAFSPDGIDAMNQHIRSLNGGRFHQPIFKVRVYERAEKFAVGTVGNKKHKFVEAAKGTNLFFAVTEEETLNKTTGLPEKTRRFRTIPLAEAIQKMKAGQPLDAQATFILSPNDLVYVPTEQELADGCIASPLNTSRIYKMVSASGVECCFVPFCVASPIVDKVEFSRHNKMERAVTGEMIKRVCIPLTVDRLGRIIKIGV

As for “GGAAGAGCAGAGCCUUGGUCUCGUUUUACUUGCCUGUCGAAAGAUAGGCAAUAAAACAAAUAUAAUUUCUUUUGAAAUUAUAUGUAAAAUGUUUAAAGCCCUCCUUUUCAGGGGGGCUUUUUU / GGAAGAGCAGAGCCTTGGTCTCNNNNNNNN / NNNNNNNNGAGACCAAGGCTCTGCTCTTCC [T2 sgRNA 20 V1 ; T2 protospacer + 8N PAM library (pbPOS T2)]”, the activity (1-depletion score) in data set [1] and in data set [2] was 0.96 throughout. As to “GGAAGAGCAGAGCCUUGGUCUCGUUGUGAAUUGCUUGAAAUUCUUGAAAGAAUUUCAGCAAUUCACAAUAAGGAUUAUUCCGUUGUGAAAACAUUCAGGUUCCUGCCCUCGUCCUUUAACGGGGGCUUUUUU / GGAAGAGCAGAGCCTTGGTCTCNNNNNNNN / NNNNNNNNGAGACCAAGGCTCTGCTCTTCC [T2 sgRNA 24 V1 ; T2 protospacer + 8N PAM library (pbPOS T2)]”, the activity (1-depletion score) in data set [3] was 0.91. In data set [4], “GGAAGAGCAGAGCCUUGGUCUCGUUUGAGAGCCUUGUUAGAAAUAACAAGGCGAGUGCAAAUAAGGUUUAACCGAAUUCACCGUUUAUGGACCGCAUUGUGCGGAUUUUAAAAAAGACUUUCAAAGUCUUUUUU / GGAAGAGCAGAGCCTTGGTCTCNNNNNNNN / NNNNNNNNGAGACCAAGGCTCTGCTCTTCC [T2 sgRNA 23 V1 ; T2 protospacer + 8N PAM library (pbPOS T2)]” gave an activity (1-depletion score) of 0.95. With “GGAAGAGCAGAGCCUUGGUCUCGUUGUGAUUUGCUGAGGAAACUAGCAAAUCACAAUAAGGAUUAUUCCGUUGUGAACACAUUAGGUCCCAACCCAUCGUCCUUUAACGGUGGGUUAUUUUUU / GGAAGAGCAGAGCCTTGGTCTCNNNNNNNN / NNNNNNNNGAGACCAAGGCTCTGCTCTTCC [T2 sgRNA 22 V1 ; T2 protospacer + 8N PAM library (pbPOS T2)]”, the activity (1-depletion score) in data set [5] came to 0.97. The sequence “GGAAGAGCAGAGCCUUGGUCUCGUUGUGAAUUGCUUUCGAAAGAAGCAAUUCACAAUAAGGAUUAUUCCGUUGUGAAAACAUUUAAGAGAGUCCUUCGUCCUUCGGAGGAUUCUUUUUU / GGAAGAGCAGAGCCTTGGTCTCNNNNNNNN / NNNNNNNNGAGACCAAGGCTCTGCTCTTCC [T2 sgRNA 25 V1 ; T2 protospacer + 8N PAM library (pbPOS T2)]” had an activity (1-depletion score) in data set [6] of 0.84.
